Test results from PMC8537613.
pKd: −log10 of the molar value.

Columns and labels:
Assay in all cases: ELISA
[1] = biological target: RSV FxG (respiratory syncytial virus A2 | respiratory syncytial virus (strain not stated for G)) (UniProt P03423)
RSV sG = biological target: RSV sG
[2] = biological target: RSV F clamp (respiratory syncytial virus A2) (UniProt P03420)
[3] = biological target: NiV FxG (Nipah virus (Malaysia strain) | Nipah virus) (UniProt Q9IH63)
Sequence of NiV FxG (Nipah virus (Malaysia strain) | Nipah virus) (Q9IH63 whole entry, looked up): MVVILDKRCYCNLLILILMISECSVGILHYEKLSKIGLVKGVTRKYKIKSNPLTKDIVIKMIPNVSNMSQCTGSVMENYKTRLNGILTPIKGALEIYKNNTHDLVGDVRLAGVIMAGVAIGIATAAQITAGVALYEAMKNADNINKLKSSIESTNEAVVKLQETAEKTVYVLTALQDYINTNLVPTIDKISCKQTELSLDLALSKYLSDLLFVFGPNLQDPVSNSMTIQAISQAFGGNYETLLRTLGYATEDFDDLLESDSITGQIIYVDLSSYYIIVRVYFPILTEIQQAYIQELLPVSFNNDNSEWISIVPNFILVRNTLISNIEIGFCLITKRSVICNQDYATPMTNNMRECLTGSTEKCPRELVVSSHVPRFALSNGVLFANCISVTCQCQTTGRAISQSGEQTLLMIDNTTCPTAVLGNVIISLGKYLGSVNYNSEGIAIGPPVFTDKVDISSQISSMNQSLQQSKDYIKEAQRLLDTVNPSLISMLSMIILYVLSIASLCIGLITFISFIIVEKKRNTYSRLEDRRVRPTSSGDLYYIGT

Sequence of RSV FxG (respiratory syncytial virus A2 | respiratory syncytial virus (strain not stated for G)) (P03423 whole entry): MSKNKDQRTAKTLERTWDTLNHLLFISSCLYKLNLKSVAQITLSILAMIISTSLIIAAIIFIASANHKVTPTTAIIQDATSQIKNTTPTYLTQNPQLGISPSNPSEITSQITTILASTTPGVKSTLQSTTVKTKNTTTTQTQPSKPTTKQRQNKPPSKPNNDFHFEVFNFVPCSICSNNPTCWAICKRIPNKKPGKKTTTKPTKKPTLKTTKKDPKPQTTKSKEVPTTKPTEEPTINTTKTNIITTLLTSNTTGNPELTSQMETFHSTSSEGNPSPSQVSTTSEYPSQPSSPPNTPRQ
Sequence of RSV F clamp (respiratory syncytial virus A2) (P03420 whole entry, looked up): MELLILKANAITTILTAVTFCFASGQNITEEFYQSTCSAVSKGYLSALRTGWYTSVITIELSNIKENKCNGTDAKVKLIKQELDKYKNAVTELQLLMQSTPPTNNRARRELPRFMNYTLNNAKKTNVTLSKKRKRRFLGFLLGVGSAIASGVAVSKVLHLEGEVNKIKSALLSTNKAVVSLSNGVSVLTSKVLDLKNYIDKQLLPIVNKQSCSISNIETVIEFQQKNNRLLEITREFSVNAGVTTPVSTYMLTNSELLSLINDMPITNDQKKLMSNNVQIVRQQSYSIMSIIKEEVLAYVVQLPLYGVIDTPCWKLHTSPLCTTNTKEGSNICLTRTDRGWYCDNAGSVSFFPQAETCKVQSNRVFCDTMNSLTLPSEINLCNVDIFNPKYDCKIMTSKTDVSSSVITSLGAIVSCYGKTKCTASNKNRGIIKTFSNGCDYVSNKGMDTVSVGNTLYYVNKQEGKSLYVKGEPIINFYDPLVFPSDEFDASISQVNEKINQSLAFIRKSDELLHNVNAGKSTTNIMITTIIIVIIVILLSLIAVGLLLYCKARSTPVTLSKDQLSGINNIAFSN

Row | Substance | pKd [1] | pKd (RSV sG) | pKd [2] | pKd [3]
1 | 2D10 | 9.39 | 8.89 |  | 
2 | 3D3 | 9.37 | 8.68 |  | 
3 | D25 | 9.32 |  | 9.01 | 
4 | MPE8 | 9.38 |  | 9.19 | 
5 | Mota | 9.59 |  | 9.68 | 
6 | m102.4 |  |  |  | 9.77
